Data as given in patent US9029097 (UNIVERSITE DE MONTREAL, dated 2015).

Target: T1, β2AR-GFP10 (human, UniProt P07550 1-413)
T1 construct: whole, on cells; Expressed in HEK293T cells; also called GFP tagged-β2 adrenergic receptor; not shown: GFP10, variant of GFP
Assay: BRET2 kinetics, living cells, 10 µM Iso up to 4 min

B1: QL-Gαi1-122Rluc (other)
chain: MGCTLSAEDKAAVERSKMIDRNLREDGEKAAREVKLLLLGAGESGKSTIVKQMKIIHEAGYSEEECKQYKAVVYSNTIQSIIAIIRAMGRLKIDFGDSARADDARQLFVLAGAAEEGFMTAESGGGGSMTSKVYDPEQRKRMITGPQWWARCKQMNVLDSFINYYDSEKHAENAVIFLHGNAASSYLWRHVVPHIEPVARCIIPDLIGMGKSGKSGNGSYRLLDHYKYLTAWFELLNLPKKIIFVGHDWGACLAFHYSYEHQDKIKAIVHAESVVDVIESWDEWPDIEEDIALIKSEEGEKMVLENNFFVETMLPSKIMRKLEPEEFAAYLEPFKEKGEVRRPTLSWPREIPLVKGGKPDVVQIVRNYNAYLRASDDLPKMFIESDPGFFSNAIVEGAKKFPNTEFVKVKGLHFSQEDAPDEMGKYIKSFVERVLKNEQSGGGGSLAGVIKRLWKDSGVQACFNRSREYQLNDSAAYYLNDLDRIAQPNYIPTQQDVLRTRVKTTGIVETHFTFKDLHFKMFDVGGLRSERKKWIHCFEGVTAIIFCVALSDYDLVLAEDEEMNRMHESMKLFDSICNNKWFTDTSIILFLNKKDLFEEKIKKSPLTICYPEYAGSNTYEEAAAYIQCQFEDLNKRKDTKEIYTHFTCATDTKNVQFVFDAVTDVIIKNNLKDCGLF
notes: unable to hydrolyse GTP; also called Rluc-tagged constitutively active Q204L-Gαi1 mutant
B1: binds.
